Experimental findings from patent publication US20230159601A1 (SEOUL NATIONAL UNIVERSITY HOSPITAL, published 2023) are described below.

This experiment has as its target T1, recombinant human proprotein convertase subtilisin/kexin type-9 (rhPCSK9) (human, UniProt Q8NBP7 31-692, limits assumed).
T1 construct: Elsewhere it is called His-rhPCSK9; also called recombinant hPCSK9; recombinant human PCSK9
As to the kind of experiment: surface plasmon resonance, direct binding analysis between rhPCSK9 and CAP1 (FIG. 1E).

T1 sequence (Q8NBP7 31-692 limits assumed): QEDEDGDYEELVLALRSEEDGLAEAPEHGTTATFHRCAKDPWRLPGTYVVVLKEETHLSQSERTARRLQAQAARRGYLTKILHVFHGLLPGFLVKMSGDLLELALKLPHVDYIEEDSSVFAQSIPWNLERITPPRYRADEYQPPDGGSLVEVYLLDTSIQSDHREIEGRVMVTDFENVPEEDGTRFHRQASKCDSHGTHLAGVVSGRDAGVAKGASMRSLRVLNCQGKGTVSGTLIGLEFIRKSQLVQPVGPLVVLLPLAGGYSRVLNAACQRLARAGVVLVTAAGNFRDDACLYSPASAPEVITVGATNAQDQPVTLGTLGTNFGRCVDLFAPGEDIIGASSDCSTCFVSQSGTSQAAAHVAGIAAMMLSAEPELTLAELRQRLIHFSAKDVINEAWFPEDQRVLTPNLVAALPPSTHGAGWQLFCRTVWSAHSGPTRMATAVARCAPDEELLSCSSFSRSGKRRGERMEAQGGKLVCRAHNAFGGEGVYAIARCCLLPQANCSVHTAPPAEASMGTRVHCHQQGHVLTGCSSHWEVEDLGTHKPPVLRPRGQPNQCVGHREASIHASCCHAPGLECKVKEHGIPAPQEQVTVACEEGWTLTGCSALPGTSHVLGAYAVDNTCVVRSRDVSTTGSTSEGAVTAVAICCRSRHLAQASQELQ

B1: human adenylyl cyclase-associated protein 1 (CAP1), wild type (other)
chain: MADMQNLVERLERAVGRLEAVSHTSDMHRGYADSPSKAGAAPYVQAFDSLLAGPVAEYLKISKEIGGDVQKHAEMVHTGLKLERALLVTASQCQQPAENKLSDLLAPISEQIKEVITFREKNRGSKLFNHLSAVSESIQALGWVAMAPKPGPYVKEMNDAAMFYTNRVLKEYKDVDKKHVDWVKAYLSIWTELQAYIKEFHTTGLAWSKTGPVAKELSGLPSGPSAGSGPPPPPPGPPPPPVSTSSGSDESASRSALFAQINQGESITHALKHVSDDMKTHKNPALKAQSGPVRSGPKPFSAPKPQTSPSPKRATKKEPAVLELEGKKWRVENQENVSNLVIEDTELKQVAYIYKCVNTTLQIKGKINSITVDNCKKLGLVFDDVVGIVEIINSKDVKVQVMGKVPTISINKTDGCHAYLSKNSLDCEIVSAKSSEMNVLIPTEGGDFNEFPVPEQFKTLWNGQKLVTTVTEIAG
notes: also called hCAP1; wtCAP1
In the case of B1, the Kd worked out at 1.01 µM.
